For orientation: stoichiometry N means a count of units in the complex or per binding partner.

These results are taken from paper PMC10401002.

For this assay, the target named is endogenous human glyceraldehyde 3-phosphate dehydrogenase (GAPDH), 3xFLAG-tagged by CRISPR/Cas9 knock-in (human (endogenous in HEK293T)) (UniProt P04406). The experiment in a line: cryo-EM structure; single-particle cryo-EM of endogenous 3xFLAG-tagged protein purified from HEK293T (anti-FLAG M2, SEC in TBS) on amine-modified graphene oxide grids; GAPDH also from cytosol and nuclei after 8 and 24 h of oxidative stress (1 mM H2O2, 10 mM L-Arg).

Chain of endogenous human glyceraldehyde 3-phosphate dehydrogenase (GAPDH), 3xFLAG-tagged by CRISPR/Cas9 knock-in, P04406 1-335 (enzyme; other documents disagree on this pair) (P04406 whole entry): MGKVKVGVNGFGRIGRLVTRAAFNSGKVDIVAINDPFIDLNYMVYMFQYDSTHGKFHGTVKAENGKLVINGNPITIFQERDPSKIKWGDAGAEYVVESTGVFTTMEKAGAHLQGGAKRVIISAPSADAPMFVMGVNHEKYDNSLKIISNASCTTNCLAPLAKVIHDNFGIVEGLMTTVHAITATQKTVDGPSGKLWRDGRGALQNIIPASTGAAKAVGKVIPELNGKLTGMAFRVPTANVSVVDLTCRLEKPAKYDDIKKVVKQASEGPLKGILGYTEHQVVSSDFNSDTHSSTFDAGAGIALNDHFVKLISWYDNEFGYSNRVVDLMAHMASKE

“endogenous human glyceraldehyde 3-phosphate dehydrogenase (GAPDH), 3xFLAG-tagged by CRISPR/Cas9 knock-in, P04406 1-335 (enzyme; other documents disagree on this pair)” came in with a stoichiometry N of 4.
